Source: PMC3786575

Target: USF-1-Flag (UniProt P22415)
Sequence of UniProt P22415 (P22415 whole entry): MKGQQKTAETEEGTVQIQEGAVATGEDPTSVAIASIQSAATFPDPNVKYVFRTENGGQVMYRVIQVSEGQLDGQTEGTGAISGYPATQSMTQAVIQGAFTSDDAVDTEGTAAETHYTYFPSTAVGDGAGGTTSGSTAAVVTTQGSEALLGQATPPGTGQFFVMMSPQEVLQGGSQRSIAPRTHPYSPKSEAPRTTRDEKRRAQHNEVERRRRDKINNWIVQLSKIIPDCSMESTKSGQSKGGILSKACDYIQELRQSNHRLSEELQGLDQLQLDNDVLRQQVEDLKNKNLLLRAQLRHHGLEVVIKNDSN

Substance	USF-dependent FAS promoter activation, luciferase reporter (Fig. 3D)
BAF60c-HA (from UniProt Q6STE5 1-483) (natural protein)	4 fold
HA-tagged BAF60c S247D (from UniProt Q6STE5 1-483) (natural protein)	4 fold
